Assay: soluble on expression in E. coli; label from the status in PepcDB or PDB records

Sequence	soluble on expression in E. coli
MEPWKQCAQWLIHCKVLPTNHRVTWDSAQVFDLAQTLRDGVLLCQLLNNLRAHSINLKEINLRPQMSQFLCLKNIRTFLTACCETFGMRKSELFEAFDLFDVRDFGKVIETLSRLSRTPIALATGIRPFPTEESINDEDIYKGLPDLIDETLVEDEEDLYDCVYGEDEGGEVYEDLMKAEEAHQPKCPENDIRSCCLAEIKQTEEKYTETLESIEKYFMAPLKRFLTAAEFDSVFINIPELVKLHRNLMQEIHDSIVNKNDQNLYQVFINYKERLVIYGQYCSGVESAISSLDYISKSKEDVKLKLEECSKRANNGKFTLRDLLVVPMQRVLKYHLLLQELVKHTTDPTEKANLKLALDAMKDLAQYVNEVKRDNETLREIKQFQLSIENLNQPVLLFGRPQGDGEIRITTLDKHTKQERHIFLFDLAVIVCKRKGDNYEMKEIIDLQQYKIANNPTTDKENKKWSYGFYLIHTQGQNGLEFYCKTKDLKKKWLEQFEMALSNIRPDYADSNFHDFKMHTFTRVTSCKVCQMLLRGTFYQGYLCFKCGARAHKECLGRVDNCGRVNSGEQGTLKLPEKRTNGLRRTPKQVDPGLPKMQVIRNYSGTPPPALHEGPPLQLQAGDTVELLKGDAHSLFWQGRNLASGEVGFFPSDAVKPCPCVPKPVDYSCQPWYAGAMERLQAETELINRVNSTYLVRHRTKESGEYAISIKYNNEAKHIKILTRDGFFHIAENRKFKSLMELVEYYKHHSLKEGFRTLDTTLQFPYKEPEHSAGQRGNRAGNSLLSPKVLGIAIARYDFCARDMRELSLLKGDVVKIYTKMSANGWWRGEVNGRVGWFPSTYVEEDE	soluble
RDTSVVVEHTSANPTGPVHVGRARNPIIGDAVARVLDYAGYDVDRHYYVNDAGRQIAVFTWAYETFDEDDLPEPERESPEYEMVRYYRKGNTILEDGDPDEVEAAEAEVQSILQGLEDGDEETYERVAEVVDTVLGGMQNTLGRLPAEFDEFVKETKFMRNGDTDDLVDRLKGLDCAVYEEDAWQLDLPDFEKNLVFLRSDGTSLYTTRDLAHHEWKFDTYDRAVTVLGEDHKLQADQLAAALELLDNDTDQLRQVFYSWVNLPEGGMSTREGTGIDLDDLLDEAIDRAREEVESRLDDRTRGDLDEDDIDRIARQVGIGAVRYDIVSKQPTKGITFEWDRALDFEAQSAPYVQYV	not soluble
MSLARVSGDAPAVSWETLDLHTAQPFGIARWTHSVYPRTFVTLTLDGRRGRGEAAPNAFYGETRGTVEAVLPLLAPALSDPWDWDGLHAALGARMPHDHPSVKCALEMAAVEWCAQAAGVPVWQLLGLSPTVLPESSYTVSLAPLPDMRRQAREAVGRGHRVLKVKLGTDQDEAILEALREEVPEVALRVDANAAWTRAQAKRMLGVLDAARVEFVEQPLAAGDLEGHAMLRGVSPVPIVADESLHHVGDVLALARAFDGVNLKLAKLGGPLQALRALRLARAHGMQVMMGCMIESSLGIAAAAHLAGLCDWADLDGALLLADDPYTGLDWTAGQLARPGGTGWGVTRRSEGHHHHHH	soluble
MTKKYSRFLPSEKSFNIDNFPYYWVTQVHSQYVHNIDNVLKRYGLDNSRRRILLALNIKQNASVSELSEMIISKMSTTTKIVYRLKDEGFVNTYSCENDARITRVNLTEQGKEMIHKINSLTGAVLEQSFEGLTPLQIEKMIDGLKIIFKNLSS	not soluble
MQLRKMQTIKKEPAPLDPTSSSDKMLLLNSALAEVAEDLASGEDLLLNEGSMGKNKSSACRRKREFIPDEKKDAMYWEKRRKNNEAAKRSREKRRLNDLVLENKLIALGEENATLKAELLSLKLKFGLISSTAYAQEIQKLSNSTAVYFQDYQTSKAAVSSFVDEHEPAMVAGSCISVIKHSPQSSLSDVSEVSSVEHTQESPAQGGCRSPENKFPVIKQEPVELESFAREAREERGTYSTSIYQSYMGSSFSTYSHSPPLLQVHGSTSNSPRTSEADEGVVGKSSDGEDEQQVPKGPIHSPVELQRVHATVVKVPEVNPSALPHKLRIKAKAMQVKVEALDSEFEGMQKLSSPADAIAKRHFDLEKHGTSGMAHSSLPPFSVQVTNIQDWSLKSEHWHHKELSSKTQSSFKTGVVEVKDGGYKVSEAENLYLKQGIANLSAEVVSLKRFIATQPISASDSR	not soluble
VTVTLCSPTEDDWPGMFLLAAASFTDFIGPESATAWRTLVPTDGAVVVRDGAGPGSEVVGMALYMDLRLTVPGEVVLPTAGLSFVAVAPTHRRRGLLRAMCAELHRRIADSGYPVAALHASEGGIYGRFGYGPATTLHELTVDRRFARFHADAPGGGLGGSSVRLVRPTEHRGEFEAIYERWRQQVPGGLLRPQVLWDELLAECKAAPGGDRESFALLHPDGYALYRVDRTDLKLARVSELRAVTADAHCALWRALIGLDSMERISIITHPQDPLPHLLTDTRLARTTWRQDGLWLRIMNVPAALEARGYAHEVGEFSTVLEVSDGGRFALKIGDGRARCTPTDAAAEIEMDRDVLGSLYLGAHRASTLAAANRLRTKDSQLLRRLDAAFASDVPVQTAFEF	not soluble
RVAYIQIIEPDNLIKQGDLRSIRVKSIPSARGIISDRNGEPLAVSVPVEAVWADPATIFKENALSQKQNWYALADVLGVDRQGLIDKIKRNEKRRFIYLQRQVSPAMANYIRELKLPGIGLKSESRRYYPAGEVSAHLVGVTGIDGHGLEGVERSYDEWLTGEEGKKTIRKDRYGRVVENIAWQDKQEGKSLQLTIDQRLQAIAYRAIKQAVADHRATSGSVVMLDVKTGAVLAMVNAPSYNPNNRTDWQSYKMRNRVITDSMEPGSTIKPFVILAALENGVADKDTIVDTGNGVLRLGGSRVRDVSWVGKASLSMILKKSSNIGVTKLAMQMPVEALLGLYSSVGFGELSGLNLVGEVTGIFPTRTRWSPIERATIA	not soluble
MAVDVPGIISPKTAEAASQLTDGIGGRAYLNSNGAILVTKIQLPSSTQVSNGTAYIYSGFSGGTESDIGFQYSDKYNVWKPYMKVGSKGQDQVQYLEGGSQFTNTKGFRPGSTVQLTIYKNLNGNTRATYWGTNNAGYNGRLISEISKTNVGSISKWKALATVATTGSRQSIKSNFSTSFTNITIDNKAITPVIDTQDFAKVTVSGNSVSLSVVKNLEHHHHHH	soluble
MAHHHHHHMTENFLIFGLPFLPQCNDTLPSSQFKCLVAEMGPLGQALRPFVVPTLKVGTLDSLIEASDELAKLDPQLENNVEKLIALMEETSQKPRSVVSALRINQTQEMTPAAYIKNFLWSSAQFDTREKIQSLIEKLSQISASIEERIRVLLSEYNETRNRLTAVNRKTQGNLSVKPIRELVASYNQKFQCFVDTEMLVTLFVVVPLASQKEWLETYWSLNEFVCPQSNRVIAEDKECVLNSIVTFRKAMDDVKMICRKKRFTVRDIDGVDDLSVAEVKELNQKAEKERKALYTVLWQQYSLCYVAWVHVKALRVFVESLLKYGLPPRCISVVLQVDGKKEAEIRKKILQIYPNLISPLTNEPPTDTGMLQYEYPYVSLKVTNFQKD	not soluble
MNILGIETSCDETSAAVLSDGSVRSNIVSSQRCHTDFGGVVPELASREHERLIVSIVDAAITEANIAKNDLDVIAATAGPGLIGAVMVGLCFAEGLAWALGKPFVPVNHVEAHIFSPFISDEPGHREPKGDFVSLTVSGGHTLLSVVRQDLGYEVIGRTIDDAAGEAFDKTGKMLGLGYPAGPVIDRLAREGDSDFHRFPRALTASSQTSKSYRGNFDFSFSGLKTSVRTWLEAHDSEYVQKHQADLAASIQSAIVEVLVEKSVAAALLHKVNAISVAGGVSANSGLRSAMQAACDRHGIELFIPALAYSTDNAAMIATMAQLMIARGKYRIEDNSYGVAPFARFEAARKGAR	not soluble
MCQLDVASIGDIASYRLSPISKLRYLRHTESPKSPKSSIAIPRKRYKRYRQISRMPKNHFWKNGDISYTETHIGDIFNMPYFQISIFPISPSLSAINTTIARHEFSRRQKSQNAYFGQTHILLFTAAYSPFLEHHHHHH	soluble
MATGSGSLIWFRKGLRVHDNPALEYASKGSEFMYPVFVIDPHYMESDPSAFSPGSSRAGVNRIRFLLESLKDLDSSLKKLGSRLLVFKGEPGEVLVRCLQEWKVKRLCFEYDTDPYYQALDVKVKDYASSTGVEVFSPVSHTLFNPAHIIEKNGGKPPLSYQSFLKVAGEPSCAKSELVMSYSSLPPIGDIGNLGISEVPSLEELGYKDDEQADWTPFRGGESEALKRLTKSISDKAWVANFEKPKGDPSAFLKPATTVMSPYLKFGCLSSRYFYQCLQNIYKDVKKHTSPPVSLLGQLLWREFFYTTAFGTPNFDKMKGNRICKQIPWNEDHAMLAAWRDGKTGYPWIDAIMVQLLKWGWMHHLARHCVACFLTRGDLFIHWEQGRDVFERLLIDSDWAINNGNWMWLSCSSFFYQFNRIYSPISFGKKYDPDGKYIRHFLPVLKDMPKQYIYEPWTAPLSVQTKANCIVGKDYPKPMVLHDSASKECKRKMGEAYALNKKMDGKVDEENLRDLRRKLQKDEHEESKIRNQRPKLK	soluble
MSINKIEEDRDISSDLEMKAKMYLVHRMDKAGPLTVKDVRILINKLSKDLQKNQLTLIDCQLIINLVESRFTLVKQATRYLQFFLNKLDGKSINPILIPLSNKPFWQNEPHPFDHYRSTDQLPEKVDIVIIGAGLTGASTAYHLIDAVKKRHLTVVLLDKGNPATEASGRNGGNFELLPENSVGIYSGLVSERFRFLKRCYPHVHPSILQIESEYHASLVFQFALKNRNRFKEIARKERIYCDLAAKGWLYIAHTEEEEQAICDEVTLAAQHGERIYIWSRKKIREQFGINSKFIGRFIPDDGTYNPFKYTCCLIKAAIKSGIKLYTFVKVQQIKSIDTEYHQLKTNMGLLKARQVIVATNAFTSELLPELRAIKPHQSQIAITDSTPDYCKGRLITSEDGPLYLNQPRVRSKNGLVPLLIGAGDDRPMKNPYYRKRSKKVHDLIVQQRDKYFPNLKGRPFSTEWVGALAFTPDQLPAIGYLSPGIIIVMCCNGYGGSYTTAAGLAAAEIALTGKNPPWLPADVFSPKRLLSDKPLFWEDSDSLWRIGKTLCTTLNNLNQLLAESLSYQSMYQPYSTISLLPHGHQEKNCNLDPLRVMHQLAIFRTFAYQELEMLIRYTSPVCLSKGEILFKQGDAGHSCFILIQGKINLYYEHAEGFTSMVAELEAGSVFGQMALFLENKRMATCQATENCSMLEIMVEPCKSLFIQQQALGIKLLRLLNQGVIDALHKLNKRLKYT	not soluble
LRTITRDDWETCIDLKVARHQAHFVASNLYSLAQSRFLPGFRAVGIHHGGRMVGFALYGPDADDGHYWLYRLMIDRRYQGKGHGRAALQRIIASVRRTRRRSDRLMVAYAVDNDVARQLYRDAGFVEQGLAPWGETMACLMLPEPSHRSGKVAGAPGGRAAHGVPA	not soluble
MSLSKVLYIQDHDVTWIQFNRPEKRNAIDEETMDQFAEALAQAKGDQSKVIIVTGAGEKAFCAGGDLSSFHKLKTESEAKAMLAKMAKILLDVYYCPKLTVAALNGAAVGGGCEIAAACDIRLAAPHSKFGFIQGTLGITTGWGGTSFLMTRVQPHVSLEMTMTGKVYSSDVGENLGFIQKVIQKIPFREGVKEWLGLYTVLDQEVLIAYKERHLDRISRKELIWRIEREVAKCAQLWERDAHHEAVDAFLREGHHHHHH	soluble
MGSDKIHHHHHHMQGLGLIVCRQGSFQFSLDNKCASAKAGETLFIHEESWVQVLQETEDVEILILAYQIEPIRDIIGNSVVSMYMYSKLTPELSCVWNTGEEDEIMKYMSLIDSVLEMEESVFSLYEQKLLLLALTYRICSVYNRKLISAGQETGGRKNEIFVRLIQLIEQYYMQERSVEFYADKLCLSPKYLSALSKSICGYTVQELVFKAIIRKCISLLKNTQKNIQEISNEFGFPNASYFGTFFKKQMGMSPQQYRRNL	not soluble

— the DeepSol protein solubility set
